This is an account of results in patent US20250388669A1 (published 2025).

The target in experiment [1] is T1, CD19 (UniProt P15391 20-556, limits assumed).
T1 construct: whole, on cells
T1 sequence (looked up): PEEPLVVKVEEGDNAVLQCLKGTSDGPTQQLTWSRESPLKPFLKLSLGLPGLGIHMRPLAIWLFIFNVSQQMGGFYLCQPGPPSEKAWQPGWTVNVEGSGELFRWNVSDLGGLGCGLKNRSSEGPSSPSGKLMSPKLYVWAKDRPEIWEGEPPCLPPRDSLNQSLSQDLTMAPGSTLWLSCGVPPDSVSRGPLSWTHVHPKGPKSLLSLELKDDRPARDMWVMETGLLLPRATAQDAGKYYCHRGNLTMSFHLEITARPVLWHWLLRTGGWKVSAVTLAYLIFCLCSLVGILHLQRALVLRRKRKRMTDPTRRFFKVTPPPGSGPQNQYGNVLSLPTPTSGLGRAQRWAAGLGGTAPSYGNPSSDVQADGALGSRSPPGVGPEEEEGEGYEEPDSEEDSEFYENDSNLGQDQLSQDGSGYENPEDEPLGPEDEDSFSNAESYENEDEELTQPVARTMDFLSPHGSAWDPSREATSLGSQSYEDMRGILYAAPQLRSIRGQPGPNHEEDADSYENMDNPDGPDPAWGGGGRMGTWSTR
Description: FCM or ELISA (graded summary table).

Experiment [2] concerns the target T2, CD137 (UniProt Q07011 24-186, limits assumed).
T2 construct: also called 4-1BB
Description: FCM or ELISA (graded summary table).

For experiment [3], the target named is T3, CD40 (human, UniProt P25942 21-193).
T3 construct: In the reporter assay it is whole, on GS-H2-huCD40 cells; also called huCD40
T3 sequence (P25942 21-193 limits assumed): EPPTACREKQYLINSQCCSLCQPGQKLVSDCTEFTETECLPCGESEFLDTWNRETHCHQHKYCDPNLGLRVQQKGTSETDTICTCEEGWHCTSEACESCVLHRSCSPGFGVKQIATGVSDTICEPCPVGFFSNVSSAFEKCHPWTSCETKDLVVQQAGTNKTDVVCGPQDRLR
In words: CD40 binding (method not given).

B1: Ly2278 (bispecific antibody)
chain 1: QVQLQQSGAELVRPGSSVKISCKASGYAFSSYWMNWVKQRPGQGLEWIGQIWPGDGDTNYNGKFKGKATLTADESSSTAYMQLSSLASEDSAVYFCARRETTTVGRYYYAMDYWGQGTTVTVSSASTKGPSVFPLAPSSKSTSGGTAALGCLVKDYFPEPVTVSWNSGALTSGVHTFPAVLQSSGLYSLSSVVTVPSSSLGTQTYICNVNHKPSNTKVDKKVEPKSCGGGGSGGGGSGGGGSGGGGSEVQLVESGGGLVQPGGSLRLSCAASGFTFSTYAMNWVRQAPGKGLEWVGRIRSKYNNYATYYADSVKGRFTISRDDSKNSLYLQMNSLKTEDTAVYYCVRHGNFGNSYVSWFAYWGQGTLVTVSSGGGGSDKTHTCPPCPAPEAAGPSVFLFPPKPKDTLMISRTPEVTCVVVDVSHEDPEVKFNWYVDGVEVHNAKTKPREEQYNSTYRVVSVLTVLHQDWLNGKEYKCKVSNKALPAPIEKTISKAKGQPREPQVYTLPPSREEMTKNQVSLWCLVKGFYPSDIAVEWESNGQPENNYKTTPPVLDSDGSFFLYSKLTVDKSRWQQGNVFSCSVMHEALHNHYTQKSLSLSPG
chain 2: QVQLQQSGAELVRPGSSVKISCKASGYAFSSYWMNWVKQRPGQGLEWIGQIWPGDGDTNYNGKFKGKATLTADESSSTAYMQLSSLASEDSAVYFCARRETTTVGRYYYAMDYWGQGTTVTVSSASTKGPSVFPLAPSSKSTSGGTAALGCLVKDYFPEPVTVSWNSGALTSGVHTFPAVLQSSGLYSLSSVVTVPSSSLGTQTYICNVNHKPSNTKVDKKVEPKSCGGGGSGGGGSGGGGSGGGGSQAVVTQEPSLTVSPGGTVTLTCRSSTGAVTTSNYANWVQQKPGQAPRGLIGGTNKRAPWTPARFSGSLLGGKAALTITGAQAEDEADYYCALWYSNLWVFGGGTKLTVLGGGGSDKTHTCPPCPAPEAAGPSVFLFPPKPKDTLMISRTPEVTCVVVDVSHEDPEVKFNWYVDGVEVHNAKTKPREEQYNSTYRVVSVLTVLHQDWLNGKEYKCKVSNKALPAPIEKTISKAKGQPREPQVYTLPPSREEMTKNQVSLSCAVKGFYPSDIAVEWESNGQPENNYKTTPPVLDSDGSFFLVSKLTVDKSRWQQGNVFSCSVMHEALHNRFTQKSLSLSPG
light: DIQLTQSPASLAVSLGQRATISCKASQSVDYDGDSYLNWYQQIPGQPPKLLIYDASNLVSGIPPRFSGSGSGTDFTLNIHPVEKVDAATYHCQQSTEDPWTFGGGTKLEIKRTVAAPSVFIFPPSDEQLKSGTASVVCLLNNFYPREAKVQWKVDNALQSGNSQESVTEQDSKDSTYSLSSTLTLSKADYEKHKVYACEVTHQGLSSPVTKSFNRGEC
notes: Bispecific CD19 (two Fabs) / CD3 (central Fv)
Regarding B1, the binding result in experiment [1] was “binds”.

B2: Ly1966 (other)
chain 1: QVQLQQSGAELVRPGSSVKISCKASGYAFSSYWMNWVKQRPGQGLEWIGQIWPGDGDTNYNGKFKGKATLTADESSSTAYMQLSSLASEDSAVYFCARRETTTVGRYYYAMDYWGQGTTVTVSSASTKGPSVFPLAPSSKSTSGGTAALGCLVKDYFPEPVTVSWNSGALTSGVHTFPAVLQSSGLYSLSSVVTVPSSSLGTQTYICNVNHKPSNTKVDKKVEPKSCGGGGSGGGGSGGGGSGGGGSEVQLVESGGGLVQPGGSLRLSCAASGFTFSTYAMNWVRQAPGKGLEWVGRIRSKYNNYATYYADSVKGRFTISRDDSKNSLYLQMNSLKTEDTAVYYCVRHGNFGNSYVSWFAYWGQGTLVTVSSGGGGSDKTHTCPPCPAPEAAGPSVFLFPPKPKDTLMISRTPEVTCVVVDVSHEDPEVKFNWYVDGVEVHNAKTKPREEQYNSTYRVVSVLTVLHQDWLNGKEYKCKVSNKALPAPIEKTISKAKGQPREPQVYTLPPSREEMTKNQVSLWCLVKGFYPSDIAVEWESNGQPENNYKTTPPVLDSDGSFFLYSKLTVDKSRWQQGNVFSCSVMHEALHNHYTQKSLSLSPGGGGGSGGGGSGGGGSGGGGSQVQLVQSGAEVKKPGASVKVSCKASGYTFAGFEMHWVRQAPGQGLEWMGAIDPKTGGTDYNQKFKDRVTMTRDTSISTAYMELSRLRSDDTAVYYCARDLGYFDVWGQGTLVTVSS
chain 2: QVQLQQSGAELVRPGSSVKISCKASGYAFSSYWMNWVKQRPGQGLEWIGQIWPGDGDTNYNGKFKGKATLTADESSSTAYMQLSSLASEDSAVYFCARRETTTVGRYYYAMDYWGQGTTVTVSSASTKGPSVFPLAPSSKSTSGGTAALGCLVKDYFPEPVTVSWNSGALTSGVHTFPAVLQSSGLYSLSSVVTVPSSSLGTQTYICNVNHKPSNTKVDKKVEPKSCGGGGSGGGGSGGGGSGGGGSQAVVTQEPSLTVSPGGTVTLTCRSSTGAVTTSNYANWVQQKPGQAPRGLIGGTNKRAPWTPARFSGSLLGGKAALTITGAQAEDEADYYCALWYSNLWVFGGGTKLTVLGGGGSDKTHTCPPCPAPEAAGPSVFLFPPKPKDTLMISRTPEVTCVVVDVSHEDPEVKFNWYVDGVEVHNAKTKPREEQYNSTYRVVSVLTVLHQDWLNGKEYKCKVSNKALPAPIEKTISKAKGQPREPQVYTLPPSREEMTKNQVSLSCAVKGFYPSDIAVEWESNGQPENNYKTTPPVLDSDGSFFLVSKLTVDKSRWQQGNVFSCSVMHEALHNRFTQKSLSLSPGGGGGSGGGGSGGGGSGGGGSDIQMTQSPSSLSASVGDRVTITCRASQDIRSNLNWYQQKPGGAVKLLIYYTSRLHSGVPSRFSGSGSGTDYTLTISSLQPEDFATYFCQQSEKLPRTFGGGTKVEIR
light: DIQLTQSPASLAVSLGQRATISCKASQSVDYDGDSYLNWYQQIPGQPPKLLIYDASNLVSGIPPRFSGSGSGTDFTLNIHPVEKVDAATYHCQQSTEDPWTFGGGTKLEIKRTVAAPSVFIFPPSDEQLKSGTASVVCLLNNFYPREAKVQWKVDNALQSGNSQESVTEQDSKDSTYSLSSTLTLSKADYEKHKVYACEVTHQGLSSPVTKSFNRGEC
notes: Tri-specific antibody CD19 (two Fabs) / CD3 (central Fv) / CD137 (terminal Fv)
Consider B2, for which, in experiment [2], the binding result is given as “binds”.

B3: Ly1967 (other)
chain 1: QVQLQQSGAELVRPGSSVKISCKASGYAFSSYWMNWVKQRPGQGLEWIGQIWPGDGDTNYNGKFKGKATLTADESSSTAYMQLSSLASEDSAVYFCARRETTTVGRYYYAMDYWGQGTTVTVSSASTKGPSVFPLAPSSKSTSGGTAALGCLVKDYFPEPVTVSWNSGALTSGVHTFPAVLQSSGLYSLSSVVTVPSSSLGTQTYICNVNHKPSNTKVDKKVEPKSCGGGGSGGGGSGGGGSGGGGSEVQLVESGGGLVQPGGSLRLSCAASGFTFSTYAMNWVRQAPGKGLEWVGRIRSKYNNYATYYADSVKGRFTISRDDSKNSLYLQMNSLKTEDTAVYYCVRHGNFGNSYVSWFAYWGQGTLVTVSSGGGGSDKTHTCPPCPAPEAAGPSVFLFPPKPKDTLMISRTPEVTCVVVDVSHEDPEVKFNWYVDGVEVHNAKTKPREEQYNSTYRVVSVLTVLHQDWLNGKEYKCKVSNKALPAPIEKTISKAKGQPREPQVYTLPPSREEMTKNQVSLWCLVKGFYPSDIAVEWESNGQPENNYKTTPPVLDSDGSFFLYSKLTVDKSRWQQGNVFSCSVMHEALHNHYTQKSLSLSPGGGGGSGGGGSGGGGSGGGGSQVQLVQSGAEVKKPGASVKVSCKASGYTFAGFEMHWVRQAPGQGLEWMGAIDPKTGGTDYNQKFKDRVTMTRDTSISTAYMELSRLRSDDTAVYYCARDLGYFDVWGQGTLVTVSS
chain 2: QVQLQQSGAELVRPGSSVKISCKASGYAFSSYWMNWVKQRPGQGLEWIGQIWPGDGDTNYNGKFKGKATLTADESSSTAYMQLSSLASEDSAVYFCARRETTTVGRYYYAMDYWGQGTTVTVSSASTKGPSVFPLAPSSKSTSGGTAALGCLVKDYFPEPVTVSWNSGALTSGVHTFPAVLQSSGLYSLSSVVTVPSSSLGTQTYICNVNHKPSNTKVDKKVEPKSCGGGGSGGGGSGGGGSGGGGSQAVVTQEPSLTVSPGGTVTLTCRSSTGAVTTSNYANWVQQKPGQAPRGLIGGTNKRAPWTPARFSGSLLGGKAALTITGAQAEDEADYYCALWYSNLWVFGGGTKLTVLGGGGSDKTHTCPPCPAPEAAGPSVFLFPPKPKDTLMISRTPEVTCVVVDVSHEDPEVKFNWYVDGVEVHNAKTKPREEQYNSTYRVVSVLTVLHQDWLNGKEYKCKVSNKALPAPIEKTISKAKGQPREPQVYTLPPSREEMTKNQVSLSCAVKGFYPSDIAVEWESNGQPENNYKTTPPVLDSDGSFFLVSKLTVDKSRWQQGNVFSCSVMHEALHNHYTQKSLSLSPGGGGGSGGGGSGGGGSGGGGSDIQMTQSPSSLSASVGDRVTITCRASQDIRSNLNWYQQKPGGAVKLLIYYTSRLHSGVPSRFSGSGSGTDYTLTISSLQPEDFATYFCQQSEKLPRTFGGGTKVEIR
light: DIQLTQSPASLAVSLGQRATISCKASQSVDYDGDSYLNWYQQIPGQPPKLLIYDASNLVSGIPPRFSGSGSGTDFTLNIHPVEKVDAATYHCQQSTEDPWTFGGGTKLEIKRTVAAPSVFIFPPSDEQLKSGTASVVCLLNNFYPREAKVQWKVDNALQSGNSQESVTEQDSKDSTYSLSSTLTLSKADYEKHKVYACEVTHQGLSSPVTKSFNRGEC
notes: as for B2
Turning to B3, the binding result in experiment [2] was “binds”.

B4: Ly238 (antibody, V domains shown)
VH: QVQLQQSGAELVRPGSSVKISCKASGYAFSSYWMNWVKQRPGQGLEWIGQIWPGDGDTNYNGKFKGKATLTADESSSTAYMQLSSLASEDSAVYFCARRETTTVGRYYYAMDYWGQGTTVTVSS
VL: DIQLTQSPASLAVSLGQRATISCKASQSVDYDGDSYLNWYQQIPGQPPKLLIYDASNLVSGIPPRFSGSGSGTDFTLNIHPVEKVDAATYHCQQSTEDPWTFGGGTKLEIK
notes: Parent mAb; also called Anti-CD19 Ly238; parent anti-CD19 mAb
Consider B4, for which, in experiment [1], the binding result was “binds”.

B5: Ly2280 (bispecific antibody)
chain 1: not shown
chain 2: QVTLKESGPALVKPTQTLTLTCTFSGFSLSTSGTCVSWIRQPPGKALEWLATICWEDSKGYNPSLKSRLTISKDTSKNQAVLTMTNMDPVDTATYYCARREDSGYFWFPYWGQGTLVTVSSASTKGPSVFPLAPSSKSTSGGTAALGCLVKDYFPEPVTVSWNSGALTSGVHTFPAVLQSSGLYSLSSVVTVPSSSLGTQTYICNVNHKPSNTKVDKKVEPKSCGGGGSGGGGSGGGGSGGGGSDIQMTQSPSSVSASVGDRVTITCRASQGIYSWLAWYQQKPGKAPNLLIYTASTLQSGVPSRFSGSGSGTDFTLTISSLQPEDFATYYCQQANIFPLTFGGGTKVEIKGGGGSDKTHTCPPCPAPEAAGPSVFLFPPKPKDTLMISRTPEVTCVVVDVSHEDPEVKFNWYVDGVEVHNAKTKPREEQYNSTYRVVSVLTVLHQDWLNGKEYKCKVSNKALPAPIEKTISKAKGQPREPQVYTLPPSREEMTKNQVSLSCAVKGFYPSDIAVEWESNGQPENNYKTTPPVLDSDGSFFLVSKLTVDKSRWQQGNVFSCSVMHEALHNRFTQKSLSLSPG
light: NIQMTQSPSSLSASVGDRVTITCKAGQNVNNYLAWYQQKPGKAPKVLIFNANSLQTGVPSRFSGSGSGTDFTLTISSLQPEDFATYYCQQYNSWPTFGGGTKVEIKRTVAAPSVFIFPPSDEQLKSGTASVVCLLNNFYPREAKVQWKVDNALQSGNSQESVTEQDSKDSTYSLSSTLTLSKADYEKHKVYACEVTHQGLSSPVTKSFNRGEC
notes: PD-1 Fabs, central CD40 Fv
Consider B5, for which the response in experiment [3] was half-maximal at 3.17 µg/mL (EC50).

Broadly, the EC50 is the concentration that produces a half-maximal response.
